Entries after “also recorded” stand apart in the source; their conditions may differ. Where two headings read alike, the source gives them in different places.
What was measured:
[1] = target: T1, DAPK1 (Rattus norvegicus, UniProt F1LNN8); test: DAPK1 knockdown in brain, rat MCAO focal ischemia model (immunoblot, immunohistochemistry); assay type: in vivo; conditions: 10 mg/kg i.v., ischemic vs contralateral side; listed as TATNR2B
T1 construct: decreased the level of endogenous DAPK1 in cultured cortical neurons following NMDA treatment; endogenous in cells; host or cells: primary rat cortical neurons (E18, 14-18 DIV)
T1 sequence (F1LNN8 1-1430): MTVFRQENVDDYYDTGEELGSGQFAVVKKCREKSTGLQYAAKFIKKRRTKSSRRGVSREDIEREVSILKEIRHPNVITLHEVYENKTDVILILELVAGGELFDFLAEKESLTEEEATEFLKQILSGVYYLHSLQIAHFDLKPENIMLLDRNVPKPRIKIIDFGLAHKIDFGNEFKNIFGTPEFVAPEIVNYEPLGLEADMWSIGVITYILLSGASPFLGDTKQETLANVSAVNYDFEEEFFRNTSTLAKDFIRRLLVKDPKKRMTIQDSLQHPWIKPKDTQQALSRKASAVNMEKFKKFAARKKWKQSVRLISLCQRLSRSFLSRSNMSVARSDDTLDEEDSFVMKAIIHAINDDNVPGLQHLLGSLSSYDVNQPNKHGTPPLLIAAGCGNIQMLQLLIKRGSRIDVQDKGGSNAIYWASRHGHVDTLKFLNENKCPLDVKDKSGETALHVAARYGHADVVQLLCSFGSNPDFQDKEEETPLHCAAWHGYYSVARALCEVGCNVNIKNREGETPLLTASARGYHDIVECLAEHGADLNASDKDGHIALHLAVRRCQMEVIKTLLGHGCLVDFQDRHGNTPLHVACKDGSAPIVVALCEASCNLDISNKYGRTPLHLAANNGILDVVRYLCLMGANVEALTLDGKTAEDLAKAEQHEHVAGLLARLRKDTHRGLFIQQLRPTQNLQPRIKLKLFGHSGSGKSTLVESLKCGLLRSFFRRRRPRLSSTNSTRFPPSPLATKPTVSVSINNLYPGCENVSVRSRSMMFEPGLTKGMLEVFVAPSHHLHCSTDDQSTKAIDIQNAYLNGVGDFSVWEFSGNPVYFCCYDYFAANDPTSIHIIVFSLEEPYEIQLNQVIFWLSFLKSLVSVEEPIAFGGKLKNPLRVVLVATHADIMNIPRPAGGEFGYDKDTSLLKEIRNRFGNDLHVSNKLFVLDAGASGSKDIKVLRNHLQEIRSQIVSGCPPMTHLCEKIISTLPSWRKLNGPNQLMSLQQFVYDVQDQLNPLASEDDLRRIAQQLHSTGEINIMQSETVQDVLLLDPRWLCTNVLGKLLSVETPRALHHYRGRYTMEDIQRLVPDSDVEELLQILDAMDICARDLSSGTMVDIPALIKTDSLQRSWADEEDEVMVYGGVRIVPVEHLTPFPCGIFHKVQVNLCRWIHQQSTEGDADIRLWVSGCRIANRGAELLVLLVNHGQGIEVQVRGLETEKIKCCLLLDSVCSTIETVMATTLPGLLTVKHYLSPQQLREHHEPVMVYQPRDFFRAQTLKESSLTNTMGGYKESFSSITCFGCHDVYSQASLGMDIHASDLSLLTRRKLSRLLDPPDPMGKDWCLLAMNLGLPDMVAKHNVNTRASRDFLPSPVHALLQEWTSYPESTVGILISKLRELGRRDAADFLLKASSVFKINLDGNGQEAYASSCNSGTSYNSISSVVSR
Description: (§1) Immunoblotting. Immunoblotting assays were carried out as previously described^36. Briefly, proteins were extracted from neurons using a lysis buffer composed of 150 mM NaCl, 50 mM Tris, pH 7.4, 0.1% SDS, 1% NP-40, 0.5% sodium deoxycholate, 1 mM EDTA, 1 mM Na3VO4, and proteinase inhibitor mixture (Thermo Fisher, PI78442). Samples were separated on 10% SDS-PAGE gels, transferred to polyvinylidene difluoride (PVDF) membrane, and immunoblotted with respective antibodies. Blots were enhanced with chemiluminescence detection reagent kit (Fisher, 32106) and visualized with Bio-Rad imager and Quantity One software. Signal intensities from each band was quantified with Bio-Rad Image Lab software, and the bands were analyzed relative to their controls from the same membrane and experiment.
(§2) Middle cerebral arterial occlusion (MCAO). All animal experiments were performed according to protocols approved by the University of British Columbia Committee on Animal Care. Adult naïve male Sprague-Dawley rats (300-350 g, Charles River) were group housed (3-4 animals/cage) in 12 hr:12 hr light-dark cycles and had free access to rat pellet chow and water prior to surgery. Reversible MCAO with suture-insertion method was performed as described previously^37. Briefly, a nylon suture with a blunted tip was entered through the right external carotid artery of anesthetized rats and advanced to the right internal carotid artery until the right MCA was occluded. After 60 min of occlusion, the rat was reanesthetized to facilitate the removal of the occlusion. Body temperature was maintained at between 36.5 and 37.5° C. throughout the surgical procedure with a heating pad. Peptides (10 mg/kg) or vehicle control (saline; 1 ml/kg) was injected via the jugular vein. Rats were then sewn up and allowed to recover until tissue collection.
Immunohistochemistry. Rats were anesthetized and perfused with double-filtered saline and 4% paraformaldehyde (PFA) in PBS. Brains were collected, immersed in 4% PFA before subjected to cryoprotection by 30% sucrose/PBS. After the brains had sunk, they were flash frozen with dry ice before overnight freezing in −80° C. They were then sliced at […] with a cryostat, and stored in 0.1 μM PB (sodium phosphate dibasic and sodium phosphate monobasic). Prior to staining, slices were washed 3×10 min with 0.1 μM PB, permeablized and blocked in 0.1 μM PB with 1% BSA and 0.2% Triton X-100 for 30 min, and stained with anti-DAPK1 (1:100) at 4° C. for 3 days. They were then washed and stained with Alexa 488 (1:1000) at 4° C. overnight before washing and mounting.

[2] = target: T1, DAPK1; test: Knockdown of native DAPK1 in cultured cortical neurons, NMDA stimulation (immunoblot); assay type: cell-based; conditions: synthetic peptide 25 μM, prior to and during NMDA
Description: Cell culture, transfection and treatments. HEK293 cells and COS7 cells were cultured in DMEM (Sigma, D6429-24X500ML) supplemented with 10% Fetal Bovine Serum (Invitrogen, 12483020). Cells were grown to 80% confluence in 6-well plates before transiently transfected with Lipofectamine 2000 (Invitrogen, 11668019), as according to the manufacturer's protocols. Cells were transfected for either 24 or 48 hours at 37° C. before harvesting for biochemical analyses. For experiments involving TAT or His-TAT peptides, unless otherwise specified, peptides were added 1 hour prior to NMDA insult.
(§3) Primary culture of cortical neurons. Dissociated cultures of rat cortical neurons were prepared from Sprague Dawley rat embryos collected from euthanized mothers 18 days after fertilization as previously described^35. Briefly, hippocampi and cerebral cortices were extracted from embryos and incubated for 30 min in 0.25% trypsin-EDTA. Digested tissues were dissociated by trituration and plated on poly-D-lysine-coated (Sigma, P7280) plates. Plating medium consisted of Neurobasal Media (Invitrogen, 21103-049) supplemented with B27 (Invitrogen, 17504044), glutamic acid (Sigma, G8415) and GlutaMax (Invitrogen, 35050-061). After 2 days, 2/3 of the media was replaced with fresh Neurobasal feeding media consisting of Neurobasal Media, B27 and GlutaMax. Cultures were maintained at 37° C. in a humidified 5% CO2 atmosphere. Mature neurons (14-18 days in vitro (DIV)) were used for experiments.
as §1
Cellular fractionation. Cytoplasm/nuclei fractionation was performed on cultured cortical neurons (6.0*10^6 cells/100 mm dish). Briefly, cells were washed with ice cold PBS and rocked in lysis buffer for 30 min. Cells were then collected and centrifuged to obtain a rough cytoplasmic and nuclear fraction. Supernatant was collected and further centrifuged to obtain purified cytosolic fraction. The original pellet was washed and vortexed to obtain a nuclear lysis. Mitochondrial fractionation was performed as described in the Pierce Mitochondria Isolation Kit for Cultured Cells (Thermo Scientific, 89874) user guide. Purity was assessed by immunoblotting for the presence of LB1 (nucleus only), HSP90 (cytosol only) and VDAC1 (mitochondria only).

[3] = system: rat middle cerebral artery occlusion focal ischemia model; test: Ischemic brain damage, rat MCAO focal ischemia model (H&E staining); assay type: in vivo; conditions: 10 mg/kg i.v., 60 min MCAO
Description: as §2
Hematoxylin & Eosin (H&E) staining. Slices were mounted and dried on glass slides prior staining. Slides were immersed in Hematoxylin solution (Sigma, MHS1-100ML) for 15 min away from light, followed by 5 min blueing under tap water. Slides were then counterstained with 0.5% Eosin Y (Sigma, E4009-5G) and dipped in ddH2O until the eosin stopped streaking. […]

[4] = target: T2, PSD95 (Rattus norvegicus, UniProt P31016); test: Degradation of endogenous PSD95 in cultured neurons (immunoblot); assay type: cell-based
T2 construct: endogenous in cells; host or cells: primary rat neurons
T2 sequence (P31016 whole entry): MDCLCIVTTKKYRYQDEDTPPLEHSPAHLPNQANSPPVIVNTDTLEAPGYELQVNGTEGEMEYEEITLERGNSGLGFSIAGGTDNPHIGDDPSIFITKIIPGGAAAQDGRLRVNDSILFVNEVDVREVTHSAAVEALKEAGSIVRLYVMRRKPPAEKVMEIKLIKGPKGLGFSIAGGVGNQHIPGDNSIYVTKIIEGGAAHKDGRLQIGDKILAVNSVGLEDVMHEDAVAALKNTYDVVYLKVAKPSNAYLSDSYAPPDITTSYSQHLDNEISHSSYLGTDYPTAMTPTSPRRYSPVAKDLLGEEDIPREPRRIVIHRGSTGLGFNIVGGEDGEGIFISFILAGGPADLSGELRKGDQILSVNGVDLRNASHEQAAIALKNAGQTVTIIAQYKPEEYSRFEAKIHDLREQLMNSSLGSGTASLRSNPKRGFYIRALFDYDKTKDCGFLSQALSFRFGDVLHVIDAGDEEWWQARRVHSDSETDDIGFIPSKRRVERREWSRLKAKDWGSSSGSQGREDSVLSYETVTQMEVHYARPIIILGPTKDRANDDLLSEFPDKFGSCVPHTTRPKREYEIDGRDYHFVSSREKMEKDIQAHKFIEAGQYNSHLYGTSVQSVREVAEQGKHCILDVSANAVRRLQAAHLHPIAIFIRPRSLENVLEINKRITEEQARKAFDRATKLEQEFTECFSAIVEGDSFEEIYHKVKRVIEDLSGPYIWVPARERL
Description: as §3, §1

[5] = target: T3, α-synuclein (Rattus norvegicus, UniProt P37377); test: Degradation of endogenous α-synuclein in cultured neurons (immunoblot); assay type: cell-based; conditions: 25 μM bath applied, 4 hours
T3 construct: endogenous in cells; host or cells: primary rat neurons
Description: as §3, §1

[6] = system: cortical neurons; assay type: cell-based; conditions: H2O2 300 μM 30 min
Description: as §3, with “Mature neurons (14-18 days in vitro (DIV)) were used for experiments.” left out
Assessment of neuronal death. Cytotoxic damage of primary neuron cultures was assessed by measuring LDH released into culture media as previously described^38. […] Peptide toxicity was assessed by treating neurons with 25 μM synthetic peptide or 200 μM recombinant peptide for 24 hrs. […] The amount of LDH in the medium was determined using a LDH cytotoxicity detection kit (Sigma, TOX7) according to the manufacturer's instructions. The absorbance at 490 nm was determined using a microplate reader (μQuant, Bio-TEK instruments), which was adjusted by background reading deduction.

YGRKKRRQRRRKKNRNKLRRQHSY [TAT-NR2B, CTS-lacking control peptide, reference compound]
effect on DAPK1 levels in brain tissues (immunoblot) [1]: no obvious change | effect on DAPK1 level after NMDA treatment [2]: did not affect DAPK1 levels | ischemic damage / infarct areas (H&E staining) [3]: partially decreased ischemic damage

YGRKKRRQRRRKLSSIESDVKFERQKILDQRFFE (targeted knockdown peptide targeting PSD95, with TAT PTD) [TAT-NR2B9c-CTM, PSD-95 targeting peptide]
effect on endogenous PSD95 level ([4]; 25 μM bath applied): significantly reduced PSD95; also recorded: effectively degraded endogenous PSD95 | effect of NH4Cl on PSD95 reduction ([4]; 25 μM, +NH4Cl): rescued PSD95 degradation | effect on endogenous α-synuclein level [5]: without perturbing untargeted protein α-synuclein

catalase
neuronal death (LDH) normalized to naïve non-treated control (set as 1) ([6]; catalase added, 12 hours): 1.17±1.76

N[C@H](CCCP(=O)(O)O)C(=O)O [APV, (2R)-amino-5-phosphonopentanoic acid]
neuronal death (LDH) normalized to naïve non-treated control (set as 1) ([6]; 50 μM, 12 hours after treatment): 2.16±13.8
